Results as given in the DeepSol protein solubility set.

experiment: soluble on expression in E. coli; label from the status in PepcDB or PDB records

**Q.** Which “soluble on expression in E. coli” value does the source give for “MDNLKDFKNEALVVTNASDGNTPHIVQGIEPDGSLRTKPLAQAKPSETFLHIDRNKSVIGTFFSNMNRQYDRPSDFRFYHLPVEMLSAAKDLVEIFKFPEENGQLLSNYAIDIRQPAQEQSITGDTPQQTTRWGVDEVDWQQLARMGVTPESLGETGMQRLLNGHESAVLDIRISFEGIDFETPACIRLVESAGGKPVLNVECCKRYPELDRPYMGTELSPEVKENLSRSNNAGCVVELELAGGVREPCLLSLNPKTNRLHHVPVSEITIPQEVNRVRLSDDQTTRLARGESVLVENMWSEKKQGYYDARLQYNVCKGGFTYDFRGLNRKQAQSETQMRSRELVIPQVLKGVGLTPEVREKLAAGKTVHIKDMTDNEGNLFSAFVRVNHERAKFDFFKWNPDKSKKQGQSQQAAVRQEGTKPENTVSRNRPVQKTDKKGVSI” here?
**A.** The value was “not soluble”.

**Q.** Which “soluble on expression in E. coli” value does the source give for “MARLTVHTLETAPEAAKARVEAVLQNNGFIPNLIGVLSNAPEALAFYQEVGKLNAANSLTAGEVEVIQIIAARTNQCGFCVAGHTKLATLKKLLSEQSVKAARALAAGEFDDAKLGALAAFTQAVMAKKGAVSDEELKAFFDAGYNQQQAVEVVMGVALATLCNYVNNLGQTEINP” here?
**A.** Its value is “not soluble”.

**Q.** Which “soluble on expression in E. coli” value does the source give for “GMIKIAIVGFGTVGQGVAELLIRKREEIEKAIGEFKVTAVADSKSSISGDFSLVEALRMKRETGMLRDDAKAIEVVRSADYDVLIEASVTRVDGGEGVNYIREALKRGKHVVTSNKGPLVAEFHGLMSLAERNGVRLMYEATVGGAMPVVKLAKRYLALCEIESVKGIFNGTCNYILSRMEEERLPYEHILKEAQELGYAEADPSYDVEGIDAALKLVIIANTIGVKASYEDVEVTGITQITPEAFQVAAEKGYTIRLIAEVSREKLKVSPRLVPFHHPLAIKGTMNAAMFKTDTAGSIFVAGRGAGKEETASAILSDLYEIYAGPR” here?
**A.** Its value is “soluble”.

**Q.** Which “soluble on expression in E. coli” value does the source give for “MRKTWLSLLLLFILALSACGNAADDQKNNSASPKEKKPETITYQSENGPVEVPADPKRVVVLSTFAGHVLALDVPIVGVDSWSKMSPLFQEKLKDAEVVTDEDIEKIMALKPDLIIGLSNTKKVDKLSKIAPTVTFTYGKVDYLTQFLEIGKLLNKEKEAKAWIDDFKQRAQQAGEEIRAKIGENATVTVAENFDKQLYVFGNNWARGTEILYQEMKLKMPKAVEEQALKPGYYAVSLEALPQFVGDYLILSKNGDGDTSFMETNTFKNIPAVKNGHMFVADAKAFYFNDPITLDYQLDFFKKHFLGQ” here?
**A.** The value was “not soluble”.

**Q.** For “SDVIKTQQISARTIEKVIVHPLVLLSIVDHYNRVAKDTSKRVVGVLLGSSSRGTVDVTNSYAVPFEEDDKDTSIWFLDHNYHESMFHMFKRINAKEHIVGWYSTGPKLRENDLDVHALFNGYVPNPVLVIIDVQPKELGIPTKAYYAVEEVKENATQKSQQVFVHVPTEIAAHEVEEIGVEHLLRDVKDTTISTLATEVTAKLTALKGLDARLREIRTYLDLVIEGKLPLNHEILYHLQDVFNLLPNLNVNELVKAFAVKTNDMMLVIYLSSLIRSVIALHSLINNKLLNKEHEKAEDSKPVDIPLITES”, which “soluble on expression in E. coli” value is on record?
**A.** The value was “soluble”.

**Q.** Which “soluble on expression in E. coli” value does the source give for “SLGMDEKSVAIVFPHHLLEDHPAAGKTSGFILVEDQLFFGDPVFGLRFHKNKLVLHRASMRYYHDHLKSRGLKAEYIQYSPDPHMGYLRDHLEGYDRVYTLELLDHELEARMKKLSMELGLEITEIEAPFIFRRNLMDGYFRDGRFLLRSFYIRERKRLSILMENSRPAGGKWTFDTENRKRMPPDLQVPAPVKLPENEYVQEAKEYVSEKFPDNPGSMDRFNYP” here?
**A.** Its value is “not soluble”.

**Q.** Which “soluble on expression in E. coli” value does the source give for “MTTTGIIAEFNPFHNGHKYLLDQAHGLKIVAMSGNFVQRGEPAIIDKWTRAQMALENGADLVVELPFLVAVQSADYFASGAVDILAKLGIDTLAFGTETALDYNGLSTIYGKMAEQMSEFLTTLPEKLSYPQKTQLMWEKFAGVQFTGDTPNHILALAYAKACAGRNIRLRPIQRRGADYHSTEKTVAYASATSLRHHRQDPAFVAKSMPNANLFQTSPQVTWEDYFTLLQYQVLTQPDLTQLFQVNEELAIRIKKAIRQVTSFDQLVETVATKRYTKARVRRILIYILIGARETSLPQDVHILGFTAAGRTHLSHIKNKTRIISRIGSQPWDALTQQADQVYQLGNPKIAEQTWGRVPI” here?
**A.** The value was “not soluble”.

**Q.** With “SLPEKVLVAGNNVRNVAESASKAGFEVFAITKFVDADLRIYCREVERVDDSLPEKEIAKKIEDKAEEIDAKVVLCSGFETLRVRGELLCNPYGKVERVANKLKFYRELEKAGLPFPELLGEGERGIIKPVVGGGGEEVVMGEEVPKGFLKQRFVSGTPCSVSVIANGERALPLACNLIYAGWKEMNASGFRYSGNMTPFIVEEEIRKELERLAVEAVELFGLAGSVGVDFVLAEKPYILEINPRFQGSLDSVEWSCDVNLFKMHAEAFDGRLPERVRPRRYALRAILFSPRDVEIKENLAGNPFYADVPGKGERYGKNDPLVSILAAGKSREDVERRVLERRDLFLSLA” as the sequence, how does the “soluble on expression in E. coli” value read?
**A.** The value was “not soluble”.

**Q.** Which “soluble on expression in E. coli” value does the source give for “GPGSMRRANEVAREMWAPSTWERRMSLAGQFTTFCCTHERPIKEESCAAFLMAIEVAPSTRPQYARMLRSMLEMDRTPLDMMIVGLQKKIAARSETKQARLLTKEEMNQLIRSRTDWKERVVLRLAWITASCWSEIEALIPNNFTLERDGALILDWSLAPKTARADPHRASRFVRIRGLDAFDTIKLCRTLQHSEKLTNITNAQVERALVPWNATAHSIKRGALRRAAQIVEAYNFNPHVISQLAMHVDPFDLPQNTVRYLGKHTTLLTQVSSLVAFL” here?
**A.** Its value is “not soluble”.

**Q.** Which “soluble on expression in E. coli” value does the source give for “MGSDKIHHHHHHMLSAKIEVYDSRFYQLVGTEARLEELFDKAIWAEGPVWLEKQQAVIFSDVKGNTMYRWTAEQGTQIFRQPSQFANGNAVDAAGNLITCEHGRRAISLTDHAGNIRVLVNKLEGKRLNSPNDVVVKSDGTIWFTDPPYGILSDAEGKKSPSEIIGCYVYCYDPITDDIHIATFNVMRPNGLAFCENETKLVVADMSVVEFKRTGLHHLVVFDVIDNQLYNRTSIAAISPGIPDGFCIDHNNVIYCSCETGLLVLLLDGTFLGRILLDKTASNCTFGLDQKTLFITATNSLYCLTFK” here?
**A.** Its value is “not soluble”.

**Q.** Which “soluble on expression in E. coli” value does the source give for “GPGSMAAIGGGSGDIEELLKQITNHPGVQGIIIVNTDGIPIRHTFQEHSRLLAVQYSALFQSLAMKARNAVLEIDNNNELLFLRVRTKKHEVLVAPDTKYLLIVIQQVESGDAVPNANGVSA” here?
**A.** Its value is “not soluble”.

**Q.** With “MGSDKIHHHHHHMKTRYTYGGDEHVYVEIDDEMSLDAFFIALSLSKLVREANIPGVTEICPANASFEVRFDPDVIAPDEMMARIRELEGAAKAQEKRLDTRIIEIPVFYEDPWTHETLMRFRERHQDPSGTDLDYAARINGYDDAAAFIEAHHSQPWFVSMVGFVSGLPFLYQLVERQKQLEVPKYLRPRTDTPKLTVGYGGCFSCIYSVRGAGGYQMFGITPMPIFDPEQKISYLKDFMVFFRPGDIVKWKPIDRAEYDAITAQVEAGSYVPKIAEVAFDLDAFNKDMTGFNAKLMEALNDA” as the sequence, how does the “soluble on expression in E. coli” value read?
**A.** The value was “not soluble”.

**Q.** For “QVQLQQSGAELVKPGASVKMSCKASGYTFTTYPIEWMKQNHGKSLEWIGNFHPYSDDTNYNEKFKGKAKLTVEKSSSTVYLEFSRLTSDDSAVYYCAIHYGSAYAMDYWGQGTSVTVSS”, which “soluble on expression in E. coli” value is on record?
**A.** Its value is “soluble”.

**Q.** With “MKSALSDLAFFGGPAAFDQPLLVGRPNRIDRARLYERLDRALDSQWLSNGGPLVREFEERVAGLAGVRHAVATCNATAGLQLLAHAAGLTGEVIMPSMTFAATPHALRWIGLTPVFADIDPDTGNLDPDQVAAAVTPRTSAVVGVHLWGRPCAADQLRKVADEHGLRLYFDAAHALGCAVDGRPAGSLGDAEVFSFHATKAVNAFEGGAVVTDDADLAARIRALHNFGFDLPGGSPAGGTNAKMSEAAAAMGLTSLDAFPEVIDRNRRNHAAYREHLADLPGVLVADHDRHGLNNHQYVIVEIDEATTGIHRDLVMEVLKAEGVHTRAYFSPGCHELEPYRGQPHAPLPHTERLAARVLSLPTGTAIGDDDIRRVADLLRLCATRGRELTARHRDTAPAPLAAPQTSTPTIGRSRGLEHHHHHH” as the sequence, how does the “soluble on expression in E. coli” value read?
**A.** Its value is “soluble”.

**Q.** Which “soluble on expression in E. coli” value does the source give for “ILYLHGGYNTLQPSPFHWRLLDKLTLNTLHEVVLPIYPKSPDYHYLETFKAIRDVYNQLVEEVGANNIVMMGDGSGGGLALSFVQSLINDNQEVPRKLFLLSPLLDATLTNPNITKTLEENDILVSRFGVHQLMKSWTNDLPLSDARISPLYGTLKGLPPIYMYGGGREILSPDMHAFTHALEECGNDVEFKEYPKMVHDFPIYPIRQSHKVLKHITKSI” here?
**A.** Its value is “not soluble”.

**Q.** With “MAHHHHHHMTILSLHGRNGADAQKWFESGLLPFPGGQKSFEMVSVMPALVYHHCMLYWAKLGCAALLQEGSVEMTGKAGSETLMFVVRNICCIQIAESPRCLPNWRLLDRVLDELLKRLDFVANCEDGVWSFASTTMRRMQCYLRSNIIRYLEVRDRPLEGQCGLLRYRGAFDCAINGVNSSGASGMGGCQTTDEVHVEVLSAETLRSAVQVMCGCDGVKVPCGDSSGGVKDGADALADLELEEFFCRYFLCSAPAAFDQPTKPTVRE” as the sequence, how does the “soluble on expression in E. coli” value read?
**A.** The value was “not soluble”.

**Q.** With “MQRHTLPLRPLLGTLLLGLLLAGCDASRDDATALGPVPIASGDECHVCGMLIEEMPGPKGESVLPGAVRKFCSTAELFGWWLQPENRQGQARLYVHDMSQADWRHPDDARLIDATRAYYVVGIQRPGGMGATLASFADEEAATRLAAEEGGRVLRFDEIDQAVLQGVGGDHPHRHPAH” as the sequence, how does the “soluble on expression in E. coli” value read?
**A.** The value was “not soluble”.

**Q.** Which “soluble on expression in E. coli” value does the source give for “MGSDKIHHHHHHMQHIIKTALQQTFNYKTNKSIYNILVGKKSHQTFFDACSQQQLSLYHSLPLLKYPSFELFLEKINEFNAEMEIMLHPRYTFESMGQTFQAIQLLVQTMSNTKQHVFHFVPISQNNKIQETVKIVYNYIKENQLQIDFENELHNLFKAITLKGPCYLHYYLQGYDEPMYTRQQVSLIEKLSQQQLFEYEMNNLVTMMFELESGEYTILSKIIMKPTLLNQTYITYTKLLEQFTMEDIAAQQQVKINTIEDHVLEILIKGYMSNYDDYVELEDQLQFLNFYQQHRGERLKFYKEQFDTLSYFQLKVLIVGFERGDLNVA” here?
**A.** Its value is “not soluble”.

**Q.** Which “soluble on expression in E. coli” value does the source give for “ARNKALKADGAFNGVEKEGLFKAMKHYGYEGLAVLVSERGHYSLKKAADVLGLGQEGLVAVKTDANNRIVVDDLKTKIAELKEQNIKPIAVIGVAGTTETGSVDPLSQIAQVCQEHNCHFHVDAAWGGATLMSNHYRHLLEGVELADSVTIDAHKQLYIPMGAGMVLFKDPDAMKSIEHHAQYILRKGSKDLGSHTLEGSRSGMAMLVYAAMHIISRPGYELLIDQSIEKARYFADLIKQQDDFELVSEPELCLLTYRYLPPLIREALDKAEGTQKEKLNELINQLTQFIQKRQRETGKSFVSRTRLNPDQWQRMNTIVFRVVLANPLTTRDILSSVLDEQREIAKQAPSLTAKIEEMASDILGA” here?
**A.** The value was “not soluble”.

**Q.** Which “soluble on expression in E. coli” value does the source give for “MSQLCPCGSAVEYSLCCHPYVSGEKVAPDPEHLMRSRYCAFVMQDADYLIKTWHPSCGAAALRAELMAGFAHTEWLGLTVFEHCWQDADNIGFVSFVARFTEGGKTGAIIERSRFLKENGQWYYIDGTRPQFGRNDPCPCGSGKKFKKCCGQ” here?
**A.** Its value is “not soluble”.

**Q.** Which “soluble on expression in E. coli” value does the source give for “MSLSTCPAACHCPLEAPKCAPGVGLVRDGCGCCKVCAKQLNEDCSKTQPCDHTKGLECNFGASSTALKGICRAQSEGRPCEYNSRIYQNGESFQPNCKHQCTCIDGAVGCIPLCPQELSLPNLGCPNPRLVKVTGQCCEEWVCDEDSIKDPMEEGHHHHHH” here?
**A.** The value was “not soluble”.

**Q.** Which “soluble on expression in E. coli” value does the source give for “MKKIGIIGGGQLGKMMTLEAKKMGFYVIVLDPTPRSPAGQVADEQIVAGFFDSERIEDLVKGSDVTTYDLEHIDVQTLKKLYNEGYKIHPSPYTLEIIQDKFVQKEFLKKNGIPVPEYKLVKDLESDVREFGFPVVQKARKGGYDGRGVFIIKNEKDLENAIKGETYLEEFVEIEKELAVMVARNEKGEIACYPVVEMYFDEDANICDTVIAPARIEEKYSKIAREIATSVVEALEGVGIFGIEMFLTKQGEILVNEIAPRPHNSGHYTIEACVTSQFEQHIRAIMNLPLGSTELLIPAVMVNLLGEEGYYGKPALIGLEEALAIEGLSLHFYGKKETRPYRKMGHFTVVDRDVERALEKALRAKKILKVVSEEGAMCQG” here?
**A.** The value was “soluble”.
